Laboratory results reported in the DeepSol protein solubility set.

Experiment: soluble on expression in E. coli; label from the status in PepcDB or PDB records

| Sequence | soluble on expression in E. coli |
| --- | --- |
| MAPPEGGEYLHKVTANSMSVNGDVPETVTAALADQRVEGRVCLEAGAGVGNTTAGLLAAGAKRVYAVTNDADHAATVRDRIGDRNADRLAVIEADLRATPLATDSVDLVAAHGLCNVLPPAELAPIAAELTRVAKPDGCLVVDDYAVPPADAAVNRLFALENAAARVVDGRPVLTFYPPAVLVAVFAANGWSVERRKTLLNPVPWTEAHLDAHAEVVREYAAALPDSLGEPLTAMAEDLVAAIGSERTGTMYSLAFRRADA | not soluble |
| MCSKQSANQQISYRQTAEATLDKGMDNQPEAPYWFPKQLLKWQLSKDKAAKYNTASVPLAKRIDKWQLPTVNKTQDPKMKVVALSIMNSSTSGNAPRGINTFDANVFSNWQYIDQLVYWGGSAGEGLIVPPTADVIDSAHKNGVPVLGTVFFPQVVSGGKLKWLNDFLKQDADGHFPMADKLVAVAKAYGFDGWFINQETDPEVKSFDSASTGKTATSSTSNGLSKKHAQLMQQLIKEYKQKAGSKLDLMWYDSMTKDGKMDWQNALTKENQSYLVDANMKPVADSMFLNFWWTKKRLASQELLKKSHERAEKLGISPYNLFAGIDVQADGTATPVRWNLFANKQHVPYTSLGLYAPDWTHASSDTVDEFQAKEGALWVNDQNDPSRSIPSTTSTHWPGVSTYAVEQSAITKQPFVTNFSLGNGYNYFIKLEHHHHHH | not soluble |
| MSLAAVILDYNGVIGLQPTTDQWLRLARTALWPEDDLPAFQNAFWTARTAYDAGHLSDLAYWATVLGHHPGARRLRGLRDADTDMWTSIDDHVIDVLHQAHESGLPLVLLSNAPRHLSDVLDRRPWRRLMTHAFYSARLQVCKPDPAAYQHAMNATGAADPDRVLFVDDRADNCHAARHLGLRTLHYTGHPTDLAAALQPPNEGHHHHHH | soluble |
| MLALFYNKKLFEQAGLTKPPETWDELLEYAKIITEKTGKPGLAIYLGGFNRYVPVAVSNGAPKPWFEKPEDASWFDNPVVRETLTWYINLYRKGKVEREKKGLPPYVVAPEDVGAGWLGDAFGQQKVAMVISGNWMIPFLADQFPNFKYGEDWDIAPLPAGKNGRVTMVYTVILGINSKTKHPKEAWKFVEFILGPRGQKELVVKAGQTLPSMKGFENDP | not soluble |
| MGEREGRVDSLLDTLYNLSEEKEAFFITQKMKKLFSVKLSKSKVILVAACLLLAGSGTAYAAHELTKQSVSVSINGKKKHIRTHANTVGDLLETLDIKTRDEDKITPAKQTKITADMDVVYEAAKPVKLTINGEEKTLWSTAKTVGALLDEQDVDVKEQDQIDPAIDTDISKDMKINIEPAFQVTVNDAGKQKKIWTTSTTVADFLKQQKMNIKDEDKIKPALDAKLTKGKADITITRIEKVTDVVEEKIAFDVKKQEDASLEKGKEKVVQKGKEGKLKKHFEVVKENGKEVSRELVKEETAEQSKDKVIAVGTKQSSPKFETVSASGDSKTVVSRSNESTGKVMTVSSTAYTASCSGCSGHTATGVNLKNNPNAKVIAVDPNVIPLGSKVHVEGYGYAIAADTGSAIKGNKIDVFFPEKSSAYRWGNKTVKIKILN | soluble |
| MGSDKIHHHHHHMNAIASRQRPLLPVREAVVTRVRGSAPTAVGASMCLLEDGSLLGTVGGGRMEYQVCQVLCSPRSEAPPALLSFTLGTADDQCCGGQVEICVLDVPLFFSELYQPGASRLYQRDSAGRLRLVAGMTRLGREIGSFDALTVLLRANAPGMDVEERHFALPAPHHQPLWIFGAGHVGRAIASMAHKLDFASSVFDQRPEWADPAAFPPEVTLVDTWTWADLQAPATDAMVLIMTYSHAMDYALLEHFIGEPLAYLGVIASRSKAARFSHALSRAGHDIPDYLHMPMGLPGMGKKPPEIAISVLAELLQLRHKKTDF | not soluble |
| MSLHVKVIVFGGSGFLGSHLVNRLDADEMVYFSLEKGNSVTRKDAKWVSGDVTDYSKVAEAMKDVDVAIFAVEDWNADEKRNREILLDGIKNVVNAVKANNTEQKVVSFSIINHPSYPLEFFRTKRLVEDNTRVLKNGLVVRLSFLFGEGDHFTDRFRKLSERVGHLSPEGNLAPVYVDDVVKVVNSILKREGVYDICSNDNLPLIKIVNYIRKMNGKKEIGETKLEKAISAVVETGLFAEYEAHLLFQDYYRETNILDRYVKDPLSYLDFLRGISVTHTTEGHHHHHH | soluble |
| LLDVMMDIFRRRELDLPCDGGAPQAPRPLKDHPRTPTDRGDADPRDAASHGLGTDRFPDLPTPEQDPRHPYRPGSQTLRPLRPLRPLRPLRPHGR | not soluble |
| MAKTLYEKLFDAHVVYEAENETPLLYIDRHLVHEVTSPQAFDGLRAHGRPVRQPGKTFATMDHNVSTQTKDINACGEMARIQMQELIKNCKEFGVELYDLNHPYQGIVHVMGPEQGVTLPGMTIVCGDSHTATHGAFGALAFGIGTSEVEHVLATQTLKQGRAKTMKIEVQGKAAPGITAKDIVLAIIGKTGSAGGTGHVVEFCGEAIRDLSMEGRMTLCNMAIEMGAKAGLVAPDETTFNYVKGRLHAPKGKDFDDAVAYWKTLQTDEGATFDTVVTLQAEEISPQVTWGTNPGQVISVNDNIPDPASFADPVERASAEKALAYMGLKPGIPLTEVAIDKVFIGSCTNSRIEDLRAAAEIAKGRKVAPGVQALVVPGSGPVKAQAEAEGLDKIFIEAGFEWRLPGCSMCLAMNNDRLNPGERCASTSNRNFEGRQGRGGRTHLVSPAMAAAAAVTGHFADIRNIK | soluble |
| MGHHHHHHSHGTRSKLSRHGSGADSDYENTQSGDPLLGLEGKRFLELGKEEDFHPELESLDGDLDPGLPSTEDVILKTEQVTKNIQELLRAAQEFKHDSFVPCSEKIHLAVTEMASLFPKRPALEPVRSSLRLLNASAYRLQSECRKTVPPEPGAPVDFQLLTQQVIQCAYDIAKAAKQLVTITTREKKQ | soluble |
| MYSDSRKRSSDDLIDNSDESKKPKESRNLYCTLAAYGCRKGERADMQDTHIMLPKFDLGTEKSFLSRASFFAIFDGHAGPRAAEHCQSQMGKTVKEKLAKFSDFPTLTKSLKQTFTESYKAVDDGFLAIAKQNKPIWKDGTTATTMIILNNVIYVANIGDSRAVVARKKEDGSFAPVCLTVDHDPMSHDERMRIQKAGAVVKDGRINGVIEVSRSIGDLPFKSLGIISTPDLKKLTLTKNDL | not soluble |
| EPFWADLQPRVAFVERGGSLWLNCSTNCPRPERGGLETSLRRNGTQRGLRWLARQLVDIREPETQPVCFFRCARRTLQARGLIRTFQRPDRVELMPLPPWQPVGENFTLSCRVPGAGPRASLTLTLLRGAQELIRRSFAGEPPRARGAVLTATVLARREDHGANFSCRAELDLRPHGLGLFENSSAPRELRTFSLS | soluble |
| MGSDKIHHHHHHMNKELETLIMSAVDLPTIPVVATKVIELIEQEDVTIEKLATAVSSDPAVAARILKLSNSAYYGCQRQINTLSAAIMLLGFKTLKSLVIAASLKQLNRRFGLTEKMLWEHSVGAALAGRVIATQGRFINEETGFLVGLFHDLGKTIMSNRDPQKFQGVMMRCYNEGIPFAEAERSVYPYSHAEVGALVIRKWNFPESLSTAIMHHHQFGSAPITDQYDLFLTATASLANKFCKKLGIGDRDADDDLNLTNAPEAMLLGFTSDTAEKALATFQETFEENKSFFLND | not soluble |
| MEYSHLIPEASHAQTSFGLLYMWANDYEYGVFIDDDTLPHEDADFFGTHMSNLAFEGEIETVSSDEQWVNVLYQNEDEHGLYPRGYPYAAMDETVATEATQVNDVVASQGLWTNVPDLDAVRILMDGDLQGQAQTRTSGADFGDDFVAAEGQYLTVCSMNLAFRREVIPAFYQLPMDDNEWDVGRFDDIWSGVFLKRACDVLGKQIYNGDPLCEHNKAPRSTFSDLTNEVHGLELNEHVWEIVDEAGADADSYAEVFDAIATAMADGDFSDWENGAFLNYCGEFMLDWLECLDELDAAATELEHHHHHH | soluble |
| MEIQFLGTGAGVPAKHRNVTGIALKLLDERNAVWLFDCGEGTQLQILKSSIRPRKIEKIFITHLHGDHIFGLPGLLSSRSFQGGTEPLEIYGPVGIADFVKTSLRVSQSRLSYPLKFIELTKENDVIFKDKQFTVRCNILDHGITSFGYRIEEAAHEGELQVEKLQALGIPSGPLYGKLKRGETIVFDGQEINGQAFVGERKPGRIVTILGDTRKTKNSVTLARRADVLVHESTFNKHEAKMAKAYFHSTSQQAAEVAKEAQVKQLILTHISARYLTKEAYQLQEEAQEIFPNTKIVKDMDIIEIPFANEGGA | not soluble |
| MSLSTLRIAMTAADIPLTLGQPDQGYEGNRFTGIPLYDALVEWDLSQGEKPSGLVPGLATEWHIDPQNTSRWIFTLRPGVKFHDGTEVNADAIVWNVDKVLNKAAPQYAPGQIGNTLSRMPTLTGAEKIDDHTVALTTSEPDALLPYNITNLFIVSPTAWQKQYDAVPASVGDSAARSKQAWTAFAAHAVGSGPFKLEKLVPRQQLILDKNPDYWNKDRIPRVDKVVLIPLPEANARTAALLSKQVDWIEAPAPDAIDQIKSQGFHLYANTQPHLWPWQFSFEKGSPWQDIRVRKAANLCLNRAELKSYLGGYMTEATGVYEADSPWHGKPTFQIKYDPDVARQLMTEAGYSASKPLHVTVATSASGSGQMQPLPMNEYIQQSLKSCFFNVDIKVVEWNTLFTNWRLGARDPSAKGIDAINVSAAVNDPYFGLIRFSTAKAFPPVATNWGYFSTPETEKLAAAVKHAFTPAEMNKAAGELHAALVDQVPFLFVAHDVGPRAISPAVTGVVQPQSWFIDLSLVSKKEGHHHHHH | soluble |
| MILNIRDHYLPREYWKYISLHRGPIYGYKLEAYIGADNCIHYKEIPKNPDDTLRENETIYI | not soluble |
| MSLKREEICRLLADKVNKLKNKENSLSELLPDVRLLYGETPFARTPVMYEPGIIILFSGHKIGYINERVFRYDANEYLLLTVPLPFECETYATSEVPLAGLRLNVDILQLQELLMDEGHHHHHH | not soluble |
| MSLINPIDPAARRPQTTVQPSTPPQAKPKPLAATQVLPAQSVLNLAQSELGTDMQELGSIFPVEESCAETLENMSFALGTQARERMRGLSSSADRARPRSMMQRLAKQVSATAPDHLEELRQRVPGIEAVEEVDDLLNSLRQHQFDAGEMALLLAAMLGKDGLSPTRRRRLEEALDRVMDDEDWALQLFSHLEFGAVGKSGLAELRRLYQRAASRQSGLVYWFGQFRQMDDRQRKLKTLIRALAFELSAQGGATDIRLAAVITDLKRVLQFLGMEDHCDRVAKALAIPELDGNRIIEELLEIIQQSWVYPDWLSSRADALMPEEHSRHGYARRMGELVKLLPDDCFEDIDQRETILAAFLEYQEQLADEEEGHHHHHH | soluble |
| MGSDKIHHHHHHMTIKETSRSEFITLRGLRYHVRQWGTPGAPKLFMLHGWMDVAASFQFLVDCLERDWHVIAPDWRGFGETDWPTRYPGTESYWFADYIADLEALLDHYQPNGQVDLVGHSMGANVACLYAGIRPERVHRVVDLEGFGLTQTRAEQAPKRYARWLDELRQRPELRTYDDVSGVAARLQKTNPRLPDDRAAFLAEHWSRRNEAGQWEILGDPAHKLVNPVLYRVDEVMAIWAEVSAPVLHVEARDSATLRHIAHKQTLEEFRERFRAFRDFREVVIDDAGHMLHHDQPAAVAALIESFIA | not soluble |
| MNIIDELEWRGAVNQQTDEEGLRKLVEEKKISLYCGVDPTGDSMHIGHLIPFMMMKRFQLAGHHPVILIGGATGTIGDPSGRQSERQLQTLEVVQHNVDALTAQMKKLFDFGGNSEVKMVNNYDWTHEINIIEFLRDYGKNFSINSMLAKDIVASRLDTGISFTEFTYQILQAMDFHHLYTKEDVQLQIGGSDQWGNITSGLDLIRKLEGHEAKVFGLTIPLLLKSDGTKFGKSAGGAVWLDPEKTTPFEFYQFWVNTDDRDVVKYLKYFTFLTKERIDELAVKVETEPHKREAQKVLAEEMTKFVHGEEALLQAVKITAALFSGDIKSLTADEIEQGFKEMPTFQSSKETKNIVEWLVDLGIEPSRRQAREDINNGAISMNGEKVTDVGTDVTVENSFDGRFIIIRKGKKNYSLVKLG | soluble |
